Experimental findings from IntAct's records for PubMed 12361576 are described below.

B1: Cofilin-1-A (Xenopus laevis (African clawed frog)), P45695 (parent)
chain: MASGVMVSDDVIKVFNEMKVRHQLSPEDAKKRKKAVVFCLSDDKKTIILEPGKEILQGDIGCNVEDPYKTFVKMLPRNDCRYALYDALYETKETKKEDLVFVFWAPEEASLKSKMIYASSKDAIKKRLPGIKHEWQINTYEDVNDPCNLADKLGGNTVVSLEGKSVRS

The variants in this test derive from B1. The settings on record: with 1433z_bovin YWHAZ.
On to MAAGVMVSDDVIKVFNEMKVRHQLSPEDAKKRKKAVVFCLSDDKKTIILEPGKEILQGDIGCNVEDPYKTFVKMLPRNDCRYALYDALYETKETKKEDLVFVFWAPEEASLKSKMIYASSKDAIKKRLPGIKHEWQINTYEDVNDPCNLADKLGGNTVVSLEGKSVRS [S3A], for which the “effect of a mutation on the interaction” value is recorded as “decreasing interaction”.
